{
  "source": "patent US20070224178A1",
  "about": "(Sanofi, published 2007)",
  "molecules": {"B1": {"name": "D2-9Gly-CH3 (other)", "chain": "PFVEMYSEIPEIIHMTEGRELVIPCRVTSPNITVTLKKFPLDTLIPDGKRIIWDSRKGFIISNATYKEIGLLTCEATVNGHLYKTNYLTHRQTGGGGGGGGGGQPREPQVYTLPPSREEMTKNQVSLTCLVKGFYPSDIAVEWESNGQPENNYKTTPPVLDSDGSFFLYSKLTVDKSRWQQGNVFSCSVMHEALHNHYTQKSLSLSPGK", "notes": "domain: Flt-1 domain 2; Conditioned medium of transfected 293 cells"}, "B2": {"name": "D2-9Gly-Ex3/CH3 (other)", "chain": "PFVEMYSEIPEIIHMTEGRELVIPCRVTSPNITVTLKKFPLDTLIPDGKRIIWDSRKGFIISNATYKEIGLLTCEATVNGHLYKTNYLTHRQTGGGGGGGGGPSCVPLMRCGGCCNGQPREPQVYTLPPSREEMTKNQVSLTCLVKGFYPSDIAVEWESNGQPENNYKTTPPVLDSDGSFFLYSKLTVDKSRWQQGNVFSCSVMHEALHNHYTQKSLSLSPGK", "notes": "as for B1"}, "B3": {"name": "D(1-3) (receptor, human (by the accession given in p-0034), UniProt P17948 27-328, looked up)", "soluble receptor fragment": "SKLKDPELSLKGTQHIMQAGQTLHLQCRGEAAHKWSLPEMVSKESERLSITKSACGRNGKQFCSTLTLNTAQANHTGFYSCKYLAVPTSKKKETESAIYIFISDTGRPFVEMYSEIPEIIHMTEGRELVIPCRVTSPNITVTLKKFPLDTLIPDGKRIIWDSRKGFIISNATYKEIGLLTCEATVNGHLYKTNYLTHRQTNTIIDVQISTPRPVKLLRGHTLVLNCTATTPLNTRVQMTWSYPDEKNKRASVRRRIDQSNSHANIFYSVLTIDKMQNKDKGLYTCRVRSGPSFKSVNTSVHI", "notes": "soluble fragment, Ig-like domains 1-3; made in conditioned medium of 293 cells; also called Flt-1 D(1-3) control soluble receptor"}},
  "key": {"[1]": {"target": "Vascular endothelial growth factor (VEGF) (Homo sapiens (Human)) (UniProt P15692)", "assay": "surface plasmon resonance (BIAcore), sFlt-1 construct immobilized on the chip, VEGF165 injected at 0.2 to 15 nM; column Ka"}, "[2]": {"target": "Vascular endothelial growth factor (VEGF) (Homo sapiens (Human)) (UniProt P15692)", "assay": "surface plasmon resonance (BIAcore), sFlt-1 construct immobilized on the chip, VEGF165 injected at 0.2 to 15 nM; column Kd"}, "[3]": {"target": "Vascular endothelial growth factor (VEGF) (Homo sapiens (Human)) (UniProt P15692)", "assay": "surface plasmon resonance (BIAcore), sFlt-1 construct immobilized on the chip, VEGF165 injected at 0.2 to 15 nM; the column head prints KD (nM), but the printed Kd/Ka (1.22e-3 / 2.71e6) gives about 4.5e-10 M"}, "[4]": {"target": "T1, Vascular endothelial growth factor (VEGF) (Homo sapiens (Human), UniProt P15692 181-395)", "T1 construct": "also called VEGF165; VEGF A", "T1 sequence": "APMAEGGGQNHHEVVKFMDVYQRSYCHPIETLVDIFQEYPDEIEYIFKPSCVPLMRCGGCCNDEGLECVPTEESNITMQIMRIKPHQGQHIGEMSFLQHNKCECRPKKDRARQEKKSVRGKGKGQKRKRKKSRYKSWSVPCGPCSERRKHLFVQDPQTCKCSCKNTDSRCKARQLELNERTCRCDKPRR", "assay": "solution binding assay: serially diluted conditioned medium with soluble receptor mixed with 10 pM VEGF, unbound VEGF measured by ELISA", "experimental": "FIG. 11. VEGF “in vitro” binding assay. Conditioned media from 293 cells containing known concentrations of both D2-9Gly-Fc and Flt-1 D(1-3) control soluble receptors (ranging in concentrations from 0.29-150 pM) were serially diluted and mixed with 10 pM VEGF. The amount of unbound VEGF was then measured by ELISA. D2-9Gly-Fc binds VEGF with higher affinity than all other constructs. “n” represents the number of independent experiments (transfection and binding assay).\nBriefly, conditioned media containing known concentrations of soluble receptor (ranging in concentrations from 0.29-150 pM) were serially diluted and mixed with 10 pM VEGF. The amount of unbound VEGF was then measured by ELISA. […] D2-CH3 has the lowest affinity to bind VEGF (FIG. 11)."}},
  "data": [
    {"molecule": "rFlt-1(Fc)(R&D) (from UniProt P17948-2) (Fc fusion)", "values": [
      {"measurement": "kon", "setting": "[1]", "result": "2.71e+06", "unit": "M⁻¹ s⁻¹"},
      {"measurement": "koff", "setting": "[2]", "result": 0.00122, "unit": "s⁻¹"},
      {"measurement": "Kd", "setting": "[3]", "result": 448, "unit": "pM"}
    ]},
    {"molecule": "B1", "values": [
      {"measurement": "IC50 (read off the curve)", "setting": "[4]", "result": "~0.5", "unit": "pM"}
    ]},
    {"molecule": "B2", "values": [
      {"measurement": "IC50 (read off the curve)", "setting": "[4]", "result": "~0.9", "unit": "pM"}
    ]},
    {"molecule": "B3", "values": [
      {"measurement": "IC50 (read off the curve)", "setting": "[4]", "result": "~1", "unit": "pM"}
    ]}
  ]
}
